# Source: article PMC11564643
# Experiments:
# [1] = biological target: dynamic microtubules grown from GMPCPP stabilized seeds (porcine brain tubulin) (porcine) (UniProt P02550)
# [2] = biological target: dynamic microtubules grown from GMPCPP stabilized seeds (porcine brain tubulin) (porcine) (UniProt P02550); assay: FRAP (TIRF microscopy on dynamic microtubules); set-up of the buckling experiment; EB3 and HSET bleached together (488 and 561 nm lasers at 100% for 50 frames), recovery followed at free tips and in antiparallel overlaps
"force on a streptavidin bead coated directly with a saturating amount of biotinylated EB3 dimers, optical trap at a growing microtubule tip [1] [pN]",fluorescence recovery time at single microtubule tips (in the presence of HSET) [2] [s],fold slower turnover at tips in antiparallel overlaps (with HSET) against single tips [2] [fold],Substance
0.5,–,–,biotinylated EB3 dimers coupled directly to streptavidin beads (from UniProt Q9UPY8 1-281) (natural protein)
–,6,3,mGFP-EB3 homodimer (from UniProt Q9UPY8 1-281) (natural protein)
